Assay: soluble on expression in E. coli; label from the status in PepcDB or PDB records

Row | Sequence | soluble on expression in E. coli
1 | MSLGMTHSFITEWDNTPKTKMRFSREVSFAELQRVTNCMAKHEIPSIEDFIWVLKEAAKVLSTLPNNVHVIPEPNDRLIFVGDLHGCFETLIRLFLGYPQQNIPRTGFPGEIVDGRRLVYFFNGDFVDRGGSGYQIVFLLAYMAIACPGSCYLNRGNHESEMFGLSTQGMLGNKFMSEMAGKFSGMDPETYRPAIGEFFCALPIAHTIDRNIFMVHGGVPLGDDLSNVPRAAPQSYFSTGSPAPIPKGLKPYKISNLDNLTPSRQKTTNFEDNPRKQNELWHSFVWNYDRLPYSADFMEENNFKTMVHSHTATPFHQITSFLPLEKTSGEKYSIQSVIKNQEMFDRMKAFFASHQLANSSKLSILEIFSSPTEGHHHHHH | not soluble
2 | MAIGKKVSKKTPLLLAADSHKNAAKMPCFLLQAHRIANTVIAGWHGQRKRGNGENFWQFRPYVEGESITRIDWRRSARDGHTYLREHEWEKTQTVWIWPDQSASMHYCSCFSQTSKDNYAIILALTLATLLARSGENIAIPTLMPPTMAPNVVERMALALVNRHTENPFPDFSTITRFSHVIIMSDFLDSPEKIIQNLTVLSAKQITVHLIEVADPAEEHFPYAGHTEFFDPETKEKRILGKAENSREHYCKLYQARRQELTNFCTRQGWTYHVSKTDRPLTEVILRLANKIGISPSHNRRSL | not soluble
3 | MGSDKIHHHHHHMKHTEMSLTDKKIIITRAQEQTSEARKIFRKNGAEVFDLPSLVIGPPDDWAPLDDALKKISTFDWIIFSSANGVRNVEDRMREIGLSLSKISKTIQIAAVGRKTASLLSDMDAEISFVPPSFVADSLLEYFPQNQKGLKLFIPRVQTGGRSILSDSFRLNGAEVTEVAAYESSCPKDVPQKTIEALKSGEIDIIAFTSGKTVINTVSLFNKYFGGNWFKLIEKIKLVSIGPQTTISCKKLIRKPDKEAEPHDLEGLLNACLELKFN | not soluble
4 | MGSSHHHHHHSSGRENLYFQGHMHANIRYSFGGDEHLFAEVAEAMSLEAFFRGMAITRAIEALQLPGVLDVCLANASFQVRFDPDRLAPQALLETVRGLEAEAVAARSIETRIVEVPVLYNDPWTHETLMRFRDRHQDPDSTDLEYAARINGYADVQAFIQAHSGTPWFVSMVGFVAGLPFMYQMVERERQLQVPKYLRPRIDTPKLTLGHGGCFGCIYSVRGAGGYQMFGVTPAPIFDPRQGLPYLEESMVFFRAGDIVQFRPIERTEYEHMAAEVESGTFDLRIRPVSFDLDAFLADPRGCTQHLQEVLHVD | soluble
5 | MSLSRKNQELAKIFERMADILEFLGENPYRIRTYRRVANLISELQEDVEKAFYTRKLHHMPGIGESTLLKIEEFLKTGTIKKYEELRRMVPEDLLELLDAPGVGPKTLKIAYEQLGIRTKEEFIEALKKGKFNKIRGFGPVKALKILRGIELWEKSKERISLIEAYPMAQEVLKYMERIKDKYENISIAGSLRRMKETIGDIDILVSAKKENWKAIHEHFTKYPGLLEVLAKGETKSSIILDTGRQVDLRTVEPISWGAALQYFTGSKQHNIRIRDIAKEKGLKVNEYGVFKVDTEERIAGETEEGVYEVLGMQWIPPELREDWGEIELALEHKLPRLVELKDIKGDLHMHTNWSDGVNTLEEMVETAYKLGYQYIVIGDHSQSARVANGLDPERYKQQWKEIDRLNKEYNPKGFYILKGAEVDILPDGSLDLPDEVLEQFDFVVASVHSRFEQDNTERIIKAMENPYVNMIGHPTGKQYGYREGYPVNIEKLIQKAKETGTALELNTQRMDLSPENVRKCMEAGVYIGIVTDAHSARQLHLMFLGVGLARRGWATPDKVINTFDLEGLKEFVYKKRKNLAREGHHHHHH | soluble
6 | MGKQLAKKITWAIENFSSLHSKKIYSDPFIVGGCKWRFLVYPKGNNVDYLFLYLEVADYESLSPEWRRHARYLLNVVNQNSVKRSKQNEEQKWFDVQSPRWGRLSMFPLNEINAKDSGFLVNGELKIVAEIEVLEVIGKLDVSEETSTIMESMDFNGFQLLPSQVDFVRHMFEKHPEIASEFRLKNPNLRAGYMSLLLSLIETLRQSPQELNKVDLAEGYVALRSITDAGFKVDWLEKKLVEISEKKNKEEAGETRMQEINEELESLKQKCLDLEAQLEKEKAEVFAAKSPLSFNDVF | not soluble
7 | MEQVVIVDAIRTPMGRSKGGAFRNVRAEDLSAHLMRSLLARNPSLTAATLDDIYWGCVQQTLEQGFNIARNAALLAEIPHSVPAVTVNRLCGSSMQALHDAARMIMTGDAQVCLVGGVEHMGHVPMSHGVDFHPGLSRNVAKAAGMMGLTAEMLSRLHGISREMQDQFAARSHARAWAATQSGAFKTEIIPTGGHDADGVLKQFNYDEVIRPETTVEALSTLRPAFDPVSGTVTAGTSSALSDGAAAMLVMSESRARELGLKPRARIRSMAVVGCDPSIMGYGPVPASKLALKKAGLSASDIDVFEMNEAFAAQILPCIKDLGLMEQIDEKINLNGGAIALGHPLGCSGARISTTLINLMERKDAQFGLATMCIGLGQGIATVFERV | soluble
8 | MGHHHHHHSHMEDLLDLDEELRYSLATSRAKMGRRAQQESAQAENHLNGKNSSLTLTGETSSAKLPRCRQGGWAGDSVKASNGTQTGKQQLDLNACYHKTHHRNLGLASLEEADIPIIPDLEEVQEEDFVLQVAAPPSIQIKRVMTYRDLDNDLMKYSAIQTLDGEIDLKLLTKVLAPEHEVREDDVGWDWDHLFTEVSSEVLTEWDPLQTEKEDPAGQARHT | soluble
9 | MGKSDFLSPKAIANRIKSKGLQKLRWYCQMCQKQCRDENGFKCHCMSESHQRQLLLASENPQQFMDYFSEEFRNDFLELLRRRFGTKRVHNNIVYNEYISHREHIHMNATQWETLTDFTKWLGREGLCKVDETPKGWYIQYIDRDPETIRRQLELEKKKKQDLDDEEKTAKFIEEQVRRGLEGKEQETPVFTELS | soluble
10 | MKRLEVSNQAKLPTQFGEFYIQCFREKGSNGSKDHLVVFTPNFSQNPLVRLHSECLTGDALGSQKCDCGGALQMALERISKEGGLVIYLRQEGRGIGLFNKVNAYALQDKGYDTIQANEMIGFKDDERDYSVAGEILEYYRIKKMRLLTNNPKKIAALEKYAEVTRESLIVCANEHNQGYLEVKKLKMGHLLLEHHHHHH | soluble
11 | MKRYSTKHFKRILIANNVNIDIDLKTGIVAKNMAKKEKIEQVISMGGIMWEGLNSSLIKVDEALLKQQI | soluble
12 | GKRSERQQADMEMMKDRFAKLLLGEDMSGGGKGVSSALALSNAITNLAASIFGEQTKLQPMPQDRQARWKKEIDWLLSVTDHIVEFVPSQQTSKDGVCTEIMVTRQRGDLLMNIPALRKLDAMLIDTLDNFRGHNEFWYVSRDSEEGQQARNDRTNDKWWLPPVKVPPGGLSEPSRRMLYFQKDSVTQVQKAAMAINAQVLSEMEIPESYIDSLPKNGRASLGDSIYKSITEEWFDPEQFLAMLDMSTEHKVLDLKNRIEASVVIWKRKLHTKDTKSSWGSAVSLEKRELFEERAETILVLLKQKFPGLPQSSLDISKIQFNKDVGQAVLESYSRILESLAYTVMSRIEDVLYTDTLALKQTLLA | soluble
13 | MRGSHHHHHHTDPALRASSNTFTLGTKSVNRLGYGAMQLAGPGVFGPPRDRHVAITVLREALALGVNHIDTSDFYGPHVTNQIIREALYPYSDDLTIVTKIGARRGEDASWLPAFSPAELQKAVHDNLRNLGLDVLDVVNLRVMMGDGHGPAEGSIEASLTVLAEMQQQGLVKHIGLSNVTPTQVAEARKIAEIVCVQNEYNIAHRADDAMIDALAHDGIAYVPFFPLGGFTPLQSSTLSDVAASLGATPMQVALAWLLQRSPNILLIPGTSSVAHLRENMAAEKLHLSEEVLSTLDGISREGLCGR | soluble
14 | GSHMEDSTTNITKKQKWTVEESEWVKAGVQKYGEGNWAAISKNYPFVNRTAVMIKDRWRTMKRLGMN | soluble
15 | MQLHEQIANISVTFNDIPRSDHSMTPTELCYFDDFATTLVVDSVLNFTTHKMSKKRRYLYQDEYRTARTVMKTFREQRDWTNAIYGLLTLRSVSHFLSKLPPNKLFEFRDHIVRFLNMFILDSGYTIQECKRYSQEGHQGAKLVSTGVWSRGDKIERLSGVVCLLSSEDEDSILAQEGSDFSVMYSTRKRCSTLWLGPGAYINHDCRPTCEFVSHGSTAHIRVLRDMVPGDEITCFYGSEFFGPNNIDCECCTCEKNMNGAFSYLRGNENAEPIISEKKTKYELRSRS | not soluble
16 | GSSGSSGNWIDVRYDLEKIESLIQSIHIDTTLYTDSDFHPSCKVTAMNCFLLELQVILHEYSNMTLNETVRNVLYLANSTLSSNKNVAESGCKECEELEEKTFTEFLQSFIRIVQMFINTS | soluble
17 | MGKNKTAYVCQECGYKSVKWLGKCPSCGEWNTLVEEFEPQSFSLVKKEPSLVLPVTDWEKEEHERETTGFESLDNALGGGLVKGQVILIAGEPGIGKSTLLLQISDRVANGKKVLYVSGEESGTQIALRAKRLGINNENLLVYPEVNLEKILQTLEKEKPSLLVLDSVQTIFSERLESSAGSVSQVREVTYRITEFCKEKNVPAFIVGQITKEGSIAGPKVLEHIVDTVLQFEGERFNFYRIVKVIKNRFGSTGEIAVFKMTDKGLEEVPEPSAFFISEKANAPGSVVFPHTEGSKPVLLEVQALVIPALYTTPQRRTQGFDPNRLALILAVLEKEAKIFTRDQDVFVNVAGGMSVKEPAADLAVAMAVVSSKKEKEVPKDFVIFGEVGLSGEIRAVHFGDLRLKEAKRFGFKKALIPKSLEIEIDGMEIYPVSHIQEAIEVLF | soluble
18 | MGSDKIHHHHHHMMFEDTHDEHVLLTPGPTPIHPRAQKALIRSMLGHMDPEVFALNSEIQRDLREMYGTEPEGFTALLAGTGSLGMEAGFANLVEAGDEVLVCANGSFGRRMAEMAARYGAKVRLVTAPLGEAIKPADVAAHLDDDISMVAVVHGETSTGVLNPVPEIAELVRGSGALLTVDAVTTAGMEPFHMQQWGVDYAYTGAQKCLSAPPGLAPVAISERAFSRFAARRTQTPLWYCDFEGLRDYWVNHTYHHTVPVNLHFAFHAALRAALEEGLEARQARVRLMGRVIERTLAPLGFSHYVRRPEDRLPTVLALRLPEGFDDAGLRQALRQREISVTGGLGPTAGVIWRLGLMGESARPGPYHRLMTELEDLLGAPGLLDRYEAVLAEEQRGELALA | not soluble
19 | MGSDKIHHHHHHMNLLPLFLAVAEEDNFRAAADRLGVTRSAVSQGIRRLEDAFGTTLVTRTTRSVRLTEAGERLREALSQPLSDIGTALDRVAGEDEPRGLLRIAVTSIAEQFLSGPLIASFAQAHPKVAIDVTVTDEEFDIVAAGFDAGVRLGEVIEQDMIAVPLTGDQRELAVAAPTYLAVRGTPAHPRELVHHRCIGWRRAPNVAPYRWEFEENGVPFDVAVEPQITTNDLRFMLRSALCGAGITFATEETFRPFVETGELVPLLQDFLPPFPGFFLYFPQRRNMTPKMRALIEHVRRWR | not soluble
20 | MQKELFRQSPDSNKLILFFNGWAMTREAVSHLAIPPEYDLLHVWDYRTDTLHFDWSPYREICLSAWSMGVWAAERLSREGRLPSVVSAVAICGTGYPMDDTMGIPLDIFRGTLDGLTEENRLRFNRRMCGGKSLKHLLEALAARETDEIKAELGRVYEEEEKRLKSDDPHPVAPLSWDKALIGAKDRIIPAKNQQAFWQMRGCRNIETVAEGDHYLFNRFTEWEQLWS | not soluble
21 | MIEVDGYFYHNAGAENKNTFVNDRWKMNDAAVRGYLVLRYPASSVFEELDTIVGQVIFATRVVREELVVVDSTRRWHRGPWEWLPLDSW | not soluble
